B1: His-VHH-H5-c-Myc (VHH)
VHH: QVQLQESGGGSVQAGGSLRLSCAASGSTVRRRCMGWFRQAPGKEREEVAIVDNEGIEQYADFVKGRFTISRDNAKNTLYLQMNSLKPEDTAMYYCAMAPGYTPTGCLVYNTWGQGTQVTVSS
notes: Bactrian camel VHH expressed from pET22b in BL21(DE3); not shown: His tag, named only in the construct name; c-Myc tag, named only in the construct name
B2: His-VHH-B7-c-Myc (VHH)
VHH: QVQLQESGGGSVQAGGSLRLSCVASQYTYNTVGWFRQAPGKEREGVAGIYNGGDQTYYSESAKGRFTISQDNAKRTVYLQMNSLKPEDTAMYYCAAGRLIVSGRWSMTKEEYQYWGQGTQVTVSS
notes: as for B1
B3: His-VHH-H12-c-Myc (VHH)
VHH: QVQLQESGGGSVQAGGSLRLSCAVSGGTTRRRCMGWFRQAPGKEREEVASYDNQGIIKYADFVKGRFTISRDNAKNTLYLQMNTLKPEDTAMYYCAMAPGYDNRGCLVYNTWGQGTQVTVSS
notes: as for B1

These binders were tested against PD-1蛋白 (程序性死亡受体-1) (assay: non-competitive ELISA, PD-1 coated at 2, 1, 0.5 and 0.25 μg/ml, KA=(n-1)/(nAb'-Ab)).
Chain of PD-1蛋白 (程序性死亡受体-1) (chain, as listed by the source): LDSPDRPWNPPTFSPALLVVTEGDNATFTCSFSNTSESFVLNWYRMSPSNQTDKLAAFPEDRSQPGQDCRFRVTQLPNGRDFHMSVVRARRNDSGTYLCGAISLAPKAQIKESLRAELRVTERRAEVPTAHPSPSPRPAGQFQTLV
In the case of B1, the Ka is reported as 2.62e+11 M⁻¹. B2 showed a Ka of 2.31e+11 M⁻¹. Binder B3 has a Ka of 4.79e+11 M⁻¹.
